Molecular target: CBD-cohesin from C. thermocellum displayed on the yeast cell surface (CtCBDcoh yeast), P32781
Sequence (P32781 whole entry, looked up): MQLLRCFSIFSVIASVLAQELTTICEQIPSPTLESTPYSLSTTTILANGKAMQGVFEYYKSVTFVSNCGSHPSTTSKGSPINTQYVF

B1: Cel8A cellulase spliced to the Cel48S dockerin with aspartic acid substituted for the No. 18 and No. 50 asparagines, His-tagged (CtCBDcohCel8A48SdocN-D yeast) (protein)
chain: AGVPFNTKYPYGPTSIADNQSEVTAMLKAEWEDWKSKRITSNGAGGYKRVQRDASTNYDTVSEGMGYGLLLAVCFNEQALFDDLYRYVKSHFNGNGLMHWHIDANNNVTSHDGGDGAATDADEDIALALIFADKLWGSSGAINYGQEARTLINNLYNHCVEHGSYVLKPGDRWGGSSVTNPSYFAPAWYKVYAQYTGDTRWNQVADKCYQIVEEVKKYNNGTGLVPDWCTASGTPASGQSYDYKYDATRYGWRTAVDYSWFGDQRAKANCDMLTKFFARDGAKGIVDGYTIQGSKISNNHNASFIGPVAAASMTGYDLNFAKELYRETVAVKDSEYYGYYGNSLRLLTLLYITGNFPNPLSDLSGQPTPPSNPTPSLPPQVVYGPSSGTPSTKLYGDVNDDGKVDSTDAVALKRYVLRSGISINTDNADLNEDGRVDSTDLGILKRYILKEIDTLPYKN
With B1 the CMC decomposition activity was “CMC decomposition activity was increased by amino acid substitution (FIG. 11), indicating improved saccharification ability of the yeast”.
